± gives the uncertainty stated by the source.
B1: POU domain, class 2, transcription factor 1, residues 285 to 354; numbered along this chain, P14859 (parent)
chain: LEELEQFAKTFKQRRIKLGFTQGDVGLAMGKLYGNDFSQTTISRFEALNLSFKNMCKLKPLLEKWLNDAE

Variants of: B1
Assay: abundance fitness (aPCA) (normalised: wild type 0, dead -1); higher = more abundant; growth selection in yeast, the domain comes from the species named
Conditions: Homo sapiens

Variant | abundance fitness
LEELEQFAKTFKQRRIKLGFTQGDVGLAMGKLYGNDFSQTIISRFEALNLSFKNMCKLKPLLEKWLNDAE | -0.067 ± 0.058
LEELEQFAKTFKQRRIKLGFTQGDVGLAMGKLYGNDFSQTHISRFEALNLSFKNMCKLKPLLEKWLNDAE | -0.052 ± 0.052
LEELEQFAKTFKQRRIKLGFTQGDVGLAMGKLYGNDFSQTSISRFEALNLSFKNMCKLKPLLEKWLNDAE | 0.005 ± 0.023
LEELEQFAKTFKQRRIKLGFTQGDVGLAMGKLYGNDFSQTRISRFEALNLSFKNMCKLKPLLEKWLNDAE | -0.098 ± 0.024
LEELEQFAKTFKQRRIKLGFTQGDVGLAMGKLYGNDFSQTVISRFEALNLSFKNMCKLKPLLEKWLNDAE | -0.029 ± 0.032
LEELEQFAKTFKQRRIKLGFTQGDVGLAMGKLYGNDFSQTAISRFEALNLSFKNMCKLKPLLEKWLNDAE | -0.02 ± 0.025
LEELEQFAKTFKQRRIKLGFTQGDVGLAMGKLYGNDFSQTCISRFEALNLSFKNMCKLKPLLEKWLNDAE | -0.08 ± 0.069
LEELEQFAKTFKQRRIKLGFTQGDVGLAMGKLYGNDFSQTWISRFEALNLSFKNMCKLKPLLEKWLNDAE | -0.088 ± 0.039
LEELEQFAKTFKQRRIKLGFTQGDVGLAMGKLYGNDFSQTFISRFEALNLSFKNMCKLKPLLEKWLNDAE | -0.1 ± 0.055
LEELEQFAKTFKQRRIKLGFTQGDVGLAMGKLYGNDFSQTKISRFEALNLSFKNMCKLKPLLEKWLNDAE | 0.022 ± 0.086
LEELEQFAKTFKQRRIKLGFTQGDVGLAMGKLYGNDFSQTMISRFEALNLSFKNMCKLKPLLEKWLNDAE | -0.029 ± 0.036
LEELEQFAKTFKQRRIKLGFTQGDVGLAMGKLYGNDFSQTQISRFEALNLSFKNMCKLKPLLEKWLNDAE | -0.028 ± 0.033
LEELEQFAKTFKQRRIKLGFTQGDVGLAMGKLYGNDFSQTPISRFEALNLSFKNMCKLKPLLEKWLNDAE | -0.209 ± 0.021
LEELEQFAKTFKQRRIKLGFTQGDVGLAMGKLYGNDFSQTEISRFEALNLSFKNMCKLKPLLEKWLNDAE | -0.163 ± 0.089
LEELEQFAKTFKQRRIKLGFTQGDVGLAMGKLYGNDFSQTNISRFEALNLSFKNMCKLKPLLEKWLNDAE | -0.029 ± 0.075
LEELEQFAKTFKQRRIKLGFTQGDVGLAMGKLYGNDFSQTLISRFEALNLSFKNMCKLKPLLEKWLNDAE | -0.023 ± 0.021
LEELEQFAKTFKQRRIKLGFTQGDVGLAMGKLYGNDFSQTDISRFEALNLSFKNMCKLKPLLEKWLNDAE | -0.018 ± 0.072
LEELEQFAKTFKQRRIKLGFTQGDVGLAMGKLYGNDFSWTTISRFEALNLSFKNMCKLKPLLEKWLNDAE | -0.005 ± 0.037
LEELEQFAKTFKQRRIKLGFTQGDVGLAMGKLYGNDFSVTTISRFEALNLSFKNMCKLKPLLEKWLNDAE | -0.033 ± 0.029

Variant | abundance fitness
LEELEQFAKTFKQRRIKLGFTQGDVGLAMGKLYGNDFSQTTISCFEALNLSFKNMCKLKPLLEKWLNDAE | -0.053 ± 0.15
LEELEQFAKTFKQRRIKLGFTQGDVGLAMGKLYGNDFSQTTISLFEALNLSFKNMCKLKPLLEKWLNDAE | -0.026 ± 0.018
LEELEQFAKTFKQRRIKLGFTQGDVGLAMGKLYGNDFSQTTISDFEALNLSFKNMCKLKPLLEKWLNDAE | -0.058 ± 0.13
LEELEQFAKTFKQRRIKLGFTQGDVGLAMGKLYGNDFSQTTISAFEALNLSFKNMCKLKPLLEKWLNDAE | 0.013 ± 0.035
LEELEQFAKTFKQRRIKLGFTQGDVGLAMGKLYGNDFSQTTISKFEALNLSFKNMCKLKPLLEKWLNDAE | -0.048 ± 0.052
LEELEQFAKTFKQRRIKLGFTQGDVGLAMGKLYGNDFSQTTISIFEALNLSFKNMCKLKPLLEKWLNDAE | -0.794 ± 0.14
LEELEQFAKTFKQRRIKLGFTQGDVGLAMGKLYGNDFSQTTISHFEALNLSFKNMCKLKPLLEKWLNDAE | -0.027 ± 0.048
LEELEQFAKTFKQRRIKLGFTQGDVGLAMGKLYGNDFSQTTISEFEALNLSFKNMCKLKPLLEKWLNDAE | -0.059 ± 0.065
LEELEQFAKTFKQRRIKLGFTQGDVGLAMGKLYGNDFSQTTIDRFEALNLSFKNMCKLKPLLEKWLNDAE | -0.161 ± 0.14
LEELEQFAKTFKQRRIKLGFTQGDVGLAMGKLYGNDFSQTTIARFEALNLSFKNMCKLKPLLEKWLNDAE | 0.035 ± 0.051
LEELEQFAKTFKQRRIKLGFTQGDVGLAMGKLYGNDFSQTTIRRFEALNLSFKNMCKLKPLLEKWLNDAE | 0.018 ± 0.037
LEELEQFAKTFKQRRIKLGFTQGDVGLAMGKLYGNDFSQTTIERFEALNLSFKNMCKLKPLLEKWLNDAE | -0.013 ± 0.088
LEELEQFAKTFKQRRIKLGFTQGDVGLAMGKLYGNDFSQTTIFRFEALNLSFKNMCKLKPLLEKWLNDAE | -0.088 ± 0.03
LEELEQFAKTFKQRRIKLGFTQGDVGLAMGKLYGNDFSQTTIMRFEALNLSFKNMCKLKPLLEKWLNDAE | -0.013 ± 0.036
LEELEQFAKTFKQRRIKLGFTQGDVGLAMGKLYGNDFSQTTINRFEALNLSFKNMCKLKPLLEKWLNDAE | 0.005 ± 0.18
LEELEQFAKTFKQRRIKLGFTQGDVGLAMGKLYGNDFSQTTIWRFEALNLSFKNMCKLKPLLEKWLNDAE | -0.086 ± 0.05
LEELEQFAKTFKQRRIKLGFTQGDVGLAMGKLYGNDFSQTTIQRFEALNLSFKNMCKLKPLLEKWLNDAE | 0.029 ± 0.028
LEELEQFAKTFKQRRIKLGFTQGDVGLAMGKLYGNDFSQTTIHRFEALNLSFKNMCKLKPLLEKWLNDAE | -0.077 ± 0.042
LEELEQFAKTFKQRRIKLGFTQGDVGLAMGKLYGNDFSQTTILRFEALNLSFKNMCKLKPLLEKWLNDAE | -0.067 ± 0.018
